Measurements as given in patent US20100311844A1, “Spontaneously Forming Ellipsoidal Phospholipid Unilamellar Vesicles” (priority 2006, published 2010).
“Also recorded” adds a separate entry of the source.

T1: SapC induced membrane fusion (Homo sapiens, UniProt P07602)
T1 sequence (P07602 311-390 limits assumed): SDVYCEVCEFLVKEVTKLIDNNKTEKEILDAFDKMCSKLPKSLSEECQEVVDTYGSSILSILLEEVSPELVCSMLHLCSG

B1: SapC: human Saposin C, over expressed in E. coli as His-tag protein, HPLC purified (protein)
chain: T1 sequence (P07602 311-390 limits assumed)
modifications: His-tag
notes: human Saposin C, over expressed in E. coli as His-tag protein, HPLC purified

How the values were obtained:
[1] = SANS of non-doped, H1-, H2- and SapC-doped DOPS/DPPC/DHPC mixtures (modified Guinier plot, ellipsoidal shell model fit); assay type: physicochemical; details: for effect of peptide on bilayer stability: SANS result; for effect of peptide on ULV size and size distribution / effect of peptide on membrane thickness: peptide 62.5 μM
Description: For preparation of liposomes containing protein, SapC was over expressed in E. coli cells using the IPTG-inducing pET system, and His-tag proteins were eluted from nickel columns. After dialysis, the proteins were further purified by HPLC chromatography as follows: The C4 reverse phase column was equilibrated with 0.1% trifluoroacetic acid (TFA) for 10 minutes, then the proteins were eluted in a linear (0-100%) gradient of 0.1% TFA in acetonitrile over 60 minutes. The major protein peak was collected and lyophilized, while protein concentrations were determined as described previously. H1 (YCEVCEFLVKEVTKLID) and H2 (EKEILDAF DKMCSKLPK) peptides were synthesized by SynPep Corp. (California, USA) and dissolved in D2O at a concentration of 1.5 mg/mL. The 0.1 wt. % lipid solution with [DOPS]/[DPPC]=10 and ([DPPC]+[DOPS]/DHPC=4 was then added to the two peptide solutions (1.5 mg/mL) at a volume ratio of 12:1, and the SapC solution with a volume ratio of 1:1, yielding a final peptide (or SapC) concentration of 62.5 μM, (molar ratio of [lipid]/[peptide]=22/1) a concentration higher than the SapC required to induce membrane destabilization. A sample containing only 6.25 μM of SapC ([lipid]/[SapC]=220/1) was also prepared for comparison purposes.
To determine the structure and stability of the resulting liposomes, the homogenized 10 wt. % solutions are first progressively diluted into 5, 2, 1, 0.5 and 0.1 wt. % samples. Prior to DLS measurements, the 0.1 wt. % stock lipid samples are diluted 5, 50 and 200 fold, and are analyzed using an N4^+ particle sizer (Coulter, Miami, Fla.). Using this method, it was determined that diluting the system had no effect on the size of the particles. For SANS experiments, the same sample preparation protocol was applied to the [DOPS]/[DPPC]=10 sample except that D2O (99.9%, Chalk River Laboratories, Chalk River, ON), instead of H2O, was used to obtain a sample with a total lipid concentration of 0.5 wt. %. The 0.5 wt. % sample was then further diluted into 0.1 and 0.05 wt. % mixtures using an acidic buffer composed of equal-volumes of 0.1N sodium acetate (NaAc) and 0.1N acetic acid (HAc).
SANS experiments were carried out on the 30 m NG7 SANS instrument located at the National Institute of Standards and Technology (NIST) Center for Neutron Research (NCNR, Gaithersburg, Md., USA). 8.09 Å wavelength (λ) neutrons, a neutron focusing lens and a long sample-to-detector distance (SDD=15.3 m) were used to reach the lowest scattering vectors [q=4π/λ·sin(θ/2), where θ is the scattering angle]. Two other SDD (5 and 1 m) were also used, covering a combined q range from 0.002 to 0.35 Å^−1 for all three SDD. Raw 2-D data were corrected for detector sensitivity, background, empty cell scattering and sample transmission. The corrected data were then circularly averaged, around the beam center, yielding the customary 1-D data. […] The incoherent plateau was determined by averaging the intensity of 10-20 high q data points and then subtracted from the reduced data.
For q>0.06 Å^−1 the differences in intensity among the three data sets (FIG. 2) are indistinguishable. Analysis of a modified Guinier plot^30 (also known as Kratky-Porod plot) applied to all three samples, where ln(I·q^2) has a linear relationship with q^2 in the range between 5×10^−3 and 2.5×10^−2 Å^−2, indicate the existence of a lamellar structure. […] The lines represent the best-fits to the data. The bilayer thickness is then derived from the square root of the slope multiplying by √{square root over (12)}.
The model for a unilamellar tri-axial ellipsoidal vesicle is depicted as an ellipsoidal shell (FIG. 4) with different core lengths along the three prime axes, acore, bcore and ccore (acore≦bcore≦ccore). The shell lengths along the axes, ashell, bshell and cshell, are defined as (acore+l), (bcore+l) and (ccore+l), respectively, where l is the bilayer thickness. […]

[2] = AFM, supported membranes; cited from earlier work
[3] = molecular target: T1, SapC induced membrane fusion; details: reported by Wang et al.; cited from earlier work

Molecule | effect of peptide on bilayer stability [1] | effect of peptide on ULV size and size distribution [1] | effect of peptide on membrane thickness [1] | effect on destabilization and restructuring of lipid membranes [2] | inhibition of SapC induced membrane fusion [3] | effect of SapC on ULV ([1]; SapC 6.25 μM, [lipid]/[SapC]=220/1) | effect of SapC on ULV ([1]; SapC 62.5 μM, [lipid]/[SapC]=22/1, acetate D2O buffer)
EKEILDAFDKMCSKLPK [H2, helical domain peptide of SapC, synthesized by SynPep Corp] | do not destabilize the bilayer morphology | shifts the equilibrium between the two ULV aggregates present | small decreases to the membrane thickness | neither H1 nor H2 alone have significant influence on membrane structure | can inhibit SapC induced membrane fusion |  | 
YCEVCEFLVKEVTKLID [H1, helical domain peptide of SapC, synthesized by SynPep Corp] | do not destabilize the bilayer morphology | does not appear to modify ULV size or their size distribution | small decreases to the membrane thickness | neither H1 nor H2 alone have significant influence on membrane structure | can inhibit SapC induced membrane fusion |  | 
B1 |  |  |  | can destabilize and restructure the acidic membrane |  | ULV structure is unperturbed; also recorded: do not appear to perturb the size of ULV or their membrane structure | promotes aggregation of ULV
